Data: US20030186844A1 (MERCK, published 2003)
Where no end group is shown, it is not given here. [ ]: non-standard residue; d: D form. The star is where a group is joined. Octanoyl = CCCCCCCC(=O)*; Dap = NC[C@H](N)C(=O)O

B1: compound 12 (peptide)
peptide: GSXFLSPEHQRVQQRKESKKPPAKLQPR
modifications: X^b at position 3: 2,3-di-amino-propionic acid in place of Ser3, its beta-amino group acylated with n-octanoic acid
B2: compound 19 (peptide)
peptide: GSS(Octanoyl)FLSPEHQRVQQRKES-NH2
modifications: N-terminus assumed
SMILES: CCCCCCCC(=O)OC[C@H](NC(=O)[C@H](CO)NC(=O)CN)C(=O)N[C@@H](Cc1ccccc1)C(=O)N[C@@H](CC(C)C)C(=O)N[C@@H](CO)C(=O)N1CCC[C@H]1C(=O)N[C@@H](CCC(=O)O)C(=O)N[C@@H](Cc1c[nH]cn1)C(=O)N[C@@H](CCC(N)=O)C(=O)N[C@@H](CCCNC(=N)N)C(=O)N[C@H](C(=O)N[C@@H](CCC(N)=O)C(=O)N[C@@H](CCC(N)=O)C(=O)N[C@@H](CCCNC(=N)N)C(=O)N[C@@H](CCCCN)C(=O)N[C@@H](CCC(=O)O)C(=O)N[C@@H](CO)C(N)=O)C(C)C
B3: compound 18 (peptide)
peptide: GSS(Octanoyl)FLSPEHQRVQQRKESKKPPA-NH2
modifications: N-terminus assumed
SMILES: CCCCCCCC(=O)OC[C@H](NC(=O)[C@H](CO)NC(=O)CN)C(=O)N[C@@H](Cc1ccccc1)C(=O)N[C@@H](CC(C)C)C(=O)N[C@@H](CO)C(=O)N1CCC[C@H]1C(=O)N[C@@H](CCC(=O)O)C(=O)N[C@@H](Cc1c[nH]cn1)C(=O)N[C@@H](CCC(N)=O)C(=O)N[C@@H](CCCNC(=N)N)C(=O)N[C@H](C(=O)N[C@@H](CCC(N)=O)C(=O)N[C@@H](CCC(N)=O)C(=O)N[C@@H](CCCNC(=N)N)C(=O)N[C@@H](CCCCN)C(=O)N[C@@H](CCC(=O)O)C(=O)N[C@@H](CO)C(=O)N[C@@H](CCCCN)C(=O)N[C@@H](CCCCN)C(=O)N1CCC[C@H]1C(=O)N1CCC[C@H]1C(=O)N[C@@H](C)C(N)=O)C(C)C
B4: compound 21 (peptide)
peptide: GSS(Octanoyl)FL-NH2
modifications: N-terminus assumed
SMILES: CCCCCCCC(=O)OC[C@H](NC(=O)[C@H](CO)NC(=O)CN)C(=O)N[C@@H](Cc1ccccc1)C(=O)N[C@@H](CC(C)C)C(N)=O

molecular target: T1, human GHS receptor 1a (human, UniProt Q92847 1-366); assay: cell-based or functional assay
T1 sequence (Q92847 whole entry): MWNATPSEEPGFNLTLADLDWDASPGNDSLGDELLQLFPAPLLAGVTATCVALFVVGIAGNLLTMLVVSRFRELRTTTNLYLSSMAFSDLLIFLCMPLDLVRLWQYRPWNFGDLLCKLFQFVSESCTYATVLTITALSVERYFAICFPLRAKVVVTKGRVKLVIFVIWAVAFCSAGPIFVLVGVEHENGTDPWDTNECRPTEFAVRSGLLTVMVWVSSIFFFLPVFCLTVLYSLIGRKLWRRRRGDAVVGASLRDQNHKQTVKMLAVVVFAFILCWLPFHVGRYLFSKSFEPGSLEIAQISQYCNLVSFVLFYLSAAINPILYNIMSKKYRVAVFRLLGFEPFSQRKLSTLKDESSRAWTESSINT

| % activation at 10 µM relative to ghrelin [%] | Functional Assay EC50 (aequorin bioluminescence) [nM] | Binder |
| --- | --- | --- |
| 97 | 17 | GSS(Octanoyl)FLSPEHQRVQQ [compound 13] |
| – | 31 | B1 |
| 102 | 38 | GS[Dap](Octanoyl)FLSPEHQRVQQ [compound 14] |

molecular target: T1, human GHS receptor 1a; assay: cell-based or functional assay; remark: another data set of the same source

| % activation at 10 µM relative to ghrelin [%] | Functional Assay EC50 (aequorin bioluminescence) [nM] | Binder |
| --- | --- | --- |
| 92 | 22 | B2 |
| 100 | 15 | B3 |
| 97 | 17 | GSS(Octanoyl)FLSPEHQRVQQ [compound 13] |
| 96 | 11.5 | B4 |

molecular target: T1, human GHS receptor 1a; assay: competitive filter binding vs [35S]-MK-677, membranes of HEK 293-AEQ17 cells transfected with human GHS receptor
Experimental: (§1) Binding of [³⁵S]-MK-677 to crude membranes prepared from HEK 293-aequorin stable cell lines was performed as described in Chen et al., Bioorg. Med. Chem. Lett. 1996, 6, 2163-2169, and Howard et al., Science 1996, 273, 974-977. Prior to the binding assay, the HEK 293-AEQ17 cells (8×10⁵ cells plated 18 hours before transfection in a T75 flask) were transfected with 22 μg of human GHS receptor plasmid using 264 μg lipofectamine.

| IC50 [nM] | Binder |
| --- | --- |
| 9.6 | GSS(Octanoyl)FLSPEHQRVQQ [compound 13] |
| 0.42 | B1 |
| 8 | GS[Dap](Octanoyl)FLSPEHQRVQQ [compound 14] |

molecular target: T1, human GHS receptor 1a; assay: as above; remark: another data set of the same source
Experimental: as §1

| IC50 [nM] | Binder |
| --- | --- |
| 0.77 | B2 |
| 0.16 | B3 |
| 9.6 | GSS(Octanoyl)FLSPEHQRVQQ [compound 13] |
| 55 | B4 |
